Experiment [1] deals with 2-repeats (14 amino acids) Ser-5 phosphorylated CTD peptide, fluorescently labelled with FAM at the N-terminal end.
Experiment [2] addresses 4-repeats (28 amino acids) Ser-5 phosphorylated CTD peptide, fluorescently labelled with FAM at the N-terminal end.
The target is the same in experiment [3]. The source holds these as a separate data set.
Experiment [4] deals with 4-repeats non-phosphorylated CTD peptide, fluorescently labelled with FAM at the N-terminal end.
For experiment [5], the target named is 2-repeats (14 amino acids) Ser-5 phosphorylated CTD peptide, fluorescently labelled with FAM at the N-terminal end. This is another data set of the same source.
In experiment [6] the target is 4-repeats (28 amino acids) Ser-5 phosphorylated CTD peptide, fluorescently labelled with FAM at the N-terminal end. The source holds these as a separate data set.
For experiment [7], the target named is heterotrimeric polymerase from influenza A/little yellow-shouldered bat/Guatemala/060/2010 (H17N10), wild type (Influenza A/little yellow-shouldered bat/Guatemala/060/2010 (H17N10)).

pKd: −log10 of the molar value. Like-named read-outs stand apart in the source and are kept apart here. Bounds are passed on as bounds.

As to “heterotrimeric polymerase from influenza A/little yellow-shouldered bat/Guatemala/060/2010 (H17N10), wild type (enzyme)”, the pKd (commonly the Kd on a negative log10 scale, so that one unit is a factor of ten) is 5.21 in experiment [1], 6.05 in experiment [2], 6.10 in experiment [3] and below 5.00 in experiment [4].
Regarding “heterotrimeric polymerase from human influenza B/Memphis/13/03, wild type (enzyme)”, the pKd in experiment [5] is 5.38; in experiment [6] it was 5.54.
In the case of “Ser-5-phosphorylated 28-mer CTD peptide (four heptad repeats), not labelled”, in experiment [7], the apparent KD (KD') worked out at 2.7 µM.

The record behind these values is patent US20190252037A1.
